Measurements from publication PMC6318248, “Oligomerisation of Synaptobrevin-2 Studied by Native Mass Spectrometry and Chemical Cross-Linking” (Journal of the American Society for Mass Spectrometry, 2018).
Several values for one entry are separate records, joined by “and”; a condition that tells them apart may be missing. Equal values may be shown once. Read-outs that look alike come from different tables or passages of the source.

B1: Synaptobrevin-2, C-terminal fragment of the cytosolic domain Syb(49-96) (domain or fragment, Rattus norvegicus, UniProt P63045 49-96, looked up)
chain: NVDKVLERDQKLSELDDRADALQAGASQFETSAAKLKRKYWWKNLKMM
notes: Synaptobrevin-2, Rattus norvegicus, UniProt P63045, residues 49-96 (C-terminal half of the SNARE motif and the juxtamembrane domain); Residual residues of the thrombin cleavage site stay at the N-terminus (measured mass 6045 Da); Plasmid was a gift from R. Jahn; source: E. coli BL21 (DE3), purified (Ni2+ IMAC, thrombin cleavage, reversed IMAC, SEC without detergent); not shown: His-tag, …

How the values were obtained:
[1] = target: Synaptobrevin-2, full-length protein Syb(1-116) (Rattus norvegicus) (UniProt P63045); assay: cross-linking; Syb(1-116) in solution (chaps), 10 μM and 100 μM protein, BS3 (83-166 μM at 100 μM protein), 1 h at 25 °C; Coomassie gel and western blot; cross-linked peptides by LC-MS/MS
[2] = target: Synaptobrevin-2, full-length protein Syb(1-116) (Rattus norvegicus) (UniProt P63045); assay: as above; remark: listed apart in the source
[3] = target: the molecule itself; assay: native MS; Syb(49-96) at 10 μM, 200 mM ammonium acetate pH 7.0
[4] = target: the molecule itself; assay: ion mobility mass spectrometry; Syb(49-96), nESI, home-built drift-tube instrument, helium buffer gas, soft conditions; limited transmission for high m/z
[5] = target: the molecule itself; assay: cross-linking; 650 μM Syb(49-96), 180 and 250 μM BS3, 1 h at 25 °C; Coomassie gel and western blot; cross-linked peptides by LC-MS/MS

Row | Molecule | stoichiometry N [1] | stoichiometry N [2] | stoichiometry N [3] | stoichiometry N [4] | stoichiometry N [5]
1 | Synaptobrevin-2, full-length protein Syb(1-116) (from UniProt P63045 1-116) (natural protein) | < 6 | 2 and < 5 |  |  | 
2 | B1 |  |  | 2 | ≤ 3 | ≤ 10
